Assay: soluble fraction after stress (log2 fold change); higher = more stays soluble; pooled small domains, quantitative proteomics
Details: stress: 50 degC
In short: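 Each library was heated to 50°C as a stress step. The libraries, made up of small protein domains, were pooled and analysed at high throughput by quantitative proteomics. The reported value is the base-two logarithm of the fold change in each protein's soluble amount after stress, taken as a measure of aggregation propensity. The higher the value, the more protein stays in solution.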

Row | Sequence | soluble fraction (log2)
1 | HMSEDAVKFRAAVEVENGLAQRNLNKNQAALILGVDRSYFTYIISGKKTPSPDMAKRIGLLLGFDWRVFYA | -2.03
2 | HMSESIFTLYGDEKFEKIRYYLKERGFITLDALARFDFDELLFVPGVSELLISEAKQLFSRYDTSSLAAKE | -0.17
3 | HMKKYEIIFNDLKQSIVNGKYSNEERLPPEETLAKKYQTSRVPVQQALNALVGIGMVKRIAGSGTYVTY | -0.628
4 | HMYVQDPVDRLVLESALRLLREQEREIIFLHLVAGLKHREIAGLLHLPLSTVLSGYRRALTKMKSYLEE | -0.115
5 | HMSGPMVPNVVGLSEEMARALLSDYSITIKHAHDGVIPKDRVASQLPLATTHAKVGSSVVLTIS | -0.354
6 | HMYEDGGAFLKAEREKYGLTLTDIYEHTHIPVRKLKAYEMHEEEMPDRTRALLELYFDQVAYEYES | -0.443
7 | HMAVWRIKVNYIPGYGVNIWSSYKNGHFTGKRAMHGETYEVLETKKDQDGNTWYKLDDHQWIEGRYAINAK | -0.466
8 | HMEAQAHYDAIYKAHPNADSIAQSAEFKAWVDAQPSVVRNAYWQLFDPKEGGTAEQIVEVFDAFVKSS | -0.151
9 | HMPARTANEEAIRKYLLNHDSITRKETQALLKTGQSAAGRILKEMVENGWLARIGNGRSTGYELR | -0.034
10 | HMLPRNKRIEIALTYIYGLGRHAATVVLKHANISPDKRTDDLDENDVRKLRDAIDANFRVEGDLRR | -0.0528
11 | HMKDTFHNLSEEKRERIIRAALGEFAASGYEKATLDGVVQAAGISKGGLYEYISSKEDLFRYLLEYSYD | -1.53
12 | HMHEAILNQIRNEELMLYIGELSDAQQDVILLKYFHQMTFKEIAESFSIPISTVKTRHTAALKKLSTLWK | -0.16
13 | HMKSKNRLTKSYLDSIPGVGRKRKSILLRYFGSIDQIKRASSEDIANVPGIGKITSDLVYNYFNQ | -0.495
14 | HMDNPVPVIITDQNFQPQLWKNVGVPTDTLFHELSAANQRKLENLMKTMIQTPLTDNGKISGYAFYSK | 0.0665
15 | HMRGLGDLEPVDSLGKIRIDDGHMVLAFGRHKGRHLSEVQAEDPRYIHWLLSPKGIEDVEAREKVKVYLEG | -0.0024
16 | HMRDYDFGNLLYKLRIESGYTQKDIADMLGVTDKAVSKWENGIAKPTTNNIKLLSTIYNVSVEELLNG | -0.254
17 | HMPVSRMRARHEALARGVMGIHAGGFSAVYGYRKVWHGLIGKGWDPGEVGRDQVMNIMRGLGMQGVRR | 0.266
18 | HMIAIGDDARLDDAARFFRIAEDSYAAGDYRKSKENYIEARKLYAELGDHEKVNLINSKISAIDSIT | 0.0633
19 | HMNIIHNPSKNFIESDLNDLKEGMEIEHKKFGYGLIKSIDKTQNHQKAVVNFKLVGEKTLLLSFARLRIV | -2.75
20 | HMGSIGAMLSSPELYGKLATNPATRGFLSQPDFIAMLTDVQKNPDKFGSYMSDPRMMQVLSVALG | 0.118
21 | HMNKFKVNERVRVIATGEIGIVKGREILPVEGSKRVNIEYLVKVGNGFSNWKAFSKKELEPVR | -1.18
22 | HMDALPLIQLEKEIKDFISQGQKINAIKHYRNVMDRDFGTTISLKLAKYTVDALAQNIKVDLTKGYDQ | -0.475
23 | HMEYDYKVIDFFKDYYSYLNYQEIEPNILDKQLTTLTEEESAKIAGIMKLDYEDFTRGIEIVTGS | -0.195
24 | HMGEQYYVLIDNKQNGPHNINAIQKMIDQNIVNRQTLIWKKGMTDWGNIMDDKDLKEMVNKIP | -0.0562
25 | HMEPAPELTPREQQVLARIALGMTDKAIAEELGVSHQTVRNHVARIYQKIKVHSRSQAVVWAREKGI | -0.192
26 | HMGIPIEAYHESLHRHYIDLWELLDTGKETLIDAEGNEVDKIHLLNAIRFNVNGMLHELLKE | -1.76

Row | Sequence | soluble fraction (log2)
27 | HMATPTMEDYIEVIYSLVKTKGYARSADIAEKLEVYPSTVTKMLKKLDAEGYIVYEKYRGIALTDIGKKMG | -1.73
28 | HMLPNLWVMGPGDHLWRVAEVAMTKHLGRPVANHEIDGYWRRLVALNRESLIDPDNPDLVFAGQVIELPPF | -2.32
29 | HMKVIETKYNTYVVKSGDTLYSVAKKYGISVTELKEINDLSNNTLSIGQKLLVPATTIIIDE | -0.117
30 | HMSQESIMPNLVGSTEDEAKAIAVEYGFQLNVISRVNNSQYPAGVIIDQNVDEGVRIKAGYPVGVTIS | -0.207
31 | HMSQDVLLKRSGDQIEVKITEVGEDYLKYKKKGFENGPDFKINTSDVFMVTFANGEKMMFEES | 0.0105
32 | HMVPLTPGELVGTEVRVLWWKEGRGEVIASSRGHQLTLEAHSEDPLRAGSTAVVLEAADDVLVVTS | -0.569
33 | HMELRIREILESKDIKVSSLAETVGITRANMSNIVNGKSTPSLETLEKIANALGVDITELFA | 0.116
34 | HMSQPLYWQIRRMVIDHDDANDVLQNTFIKAWSNIGSFRGDAKFSTWLYKIAVNESITFINKKKVQN | -0.469
35 | HMAPVVAILTRQLPLPQAQQLAGQTALVRVVKGGPGNEAELEFAGQNIQVKLPPGRQLTAGEMVTVAFALS | 0.0876
36 | HMPELPPHELLRALMVEHDIKQSELPEVGPQPVVSDVLAGKRALNLRQVAALAARFHVPMEVFT | -0.153
37 | HMIENMQEYVRHIRAAVSDRLDLTREVEDDEIREVISQIVAEESRQNYLSLGERQTVIETVFNSMR | -0.2
38 | HMGAGDKQAQQASLMQIIALQKEGMALGLVEPKHLYHSFSKMIENAGFKDVQSFAVDPSTQQ | -0.0552
39 | HMFFAGLSPEAARTLDSLPLHSWSSVEQIARQAGLNIETVRKELGLLELSGIALSRQGRFRRA | -0.549
40 | HMPKNVEVPNVVGLSLPMAKLRLTQLGLHIVVRDSVWSETGQPNTILDQDPQPGKKIKPESTVYVKVN | -0.0939
41 | HMHDAKAEIIRLSALLTEYQRSYYIDGHSQVSDLEYDRLFDRLVALETSHPELREADSPTQRV | -0.855
42 | HMGTGELLVHVIGAVHSPGVVRLPTGARVVDAIDAAGGAREDAQTEQLNLARLVDDGEQVRVPVVGESVD | -0.0181
43 | HMSYQFKIKNNAAVEVTVSEKNNLLGSTYGDKATVAAGMEKNVTFYTDKPDVVVDTNGNFTITVHDKEIII | 0.132
44 | HMHESLAEVAARKLRALIVTGELAPGERVTEAGLTDLLEISRTPAREAIRILSSEGLLVVFPNRGAEVV | -0.822
45 | HMRDSYEVEGRIASVSPAAGTFVVAGVTVDYTGARFVGGTVAQLAPGVKVEVEGRRLANGTLQAREIEFD | 0.00935
46 | HMGVTDLFAVLGFPRSPWLDAEELKQRHHALMADEASANSSPTILNEARRTLQNPALRIRHFLALEFPDH | -0.397
47 | HMEELIIQEELANKRLDIAISLLFPELTRAHAQKLIKEGSVLVDGKPRKASYPLTAGKRLSVTLPEPE | 0.05
48 | HMPLDPFVVDALRDEIINTIKQHEPRVDLQKVQVQPIYTQNRVNISVQYKIVGLPIVEDITFVLQRP | -0.0764
49 | HMKWYDSDKGFGFLSQEEGEDVYVRSSALPAGVEGLKAGQRVEFGIASGRRGPQALSL | -0.0714
50 | HMEKKGTVVIATVKGDIHDIGKNIVKVLLENYGFDVIDLGKDVPPEAVVEAVQQSGARLVGLSALM | -0.594
51 | HMGLSAEAARMAIQDAGLSKEDFAQKLGIKKVERVVEWEAGTSKPTFVQAQKIANATNIPFGYLFLVNPPK | 0.0125
52 | HMTESIKRDEAIRLNNGRIYTLDAAKIGTNEYEVMLFNPRTGEEIDSAKTSTEADAILQFDRLRRMYHR | 0.1

Row | Sequence | soluble fraction (log2)
53 | HMLPLLAFDEKLNRLGYGGGFYDRTLASLAHKGNTITAIGIAYESQKMDKVPTGYFDRPLDGVLTPSGLIM | 0.0274
54 | HMNVPLYIMIESAVEQRLLDGTYQVGKMIPTEFELMDEFSVSRETVRKAINLLVQRGKLEKKRGIGTFVAS | -2.92
55 | HMLAVPADFAEKLQSLRSQLASDDLDASDAFGRLQPFIKALYPAQLEALRKAVDDFDFVEATRLIDQLPQ | -0.232
56 | HMDANAYTYKVSEDTDTRTGEKIFLVKVAEKLSRKEYIVVNNYMKSLGSYYSKFKHAFLFKENPTEKL | -0.23
57 | HMKDNPNETFERIAGKITRTLRSGPVRIQQLDLLFSESAGKVVDVLRAMAENGEVLIKDDTIQLNGNN | 0.0379
58 | HMQWGKVRRLPSGRYQASYVHKGTRYTAPETYTVQGRAHGWIESERRLIVTDTWTPPDTRPS | -1.78
59 | HMKQLNKRQNDILSFAEKQGYVSVENLAKLFSVTQQTIRRDINYLSDNELLVRTHGGAYYSS | -0.902
60 | HMSGGIVRLAVKPWGEVFVDGASRGITPPLKQLTLDAGVHRIEIRNPAGPSWTKDVDVVAGQPTTVSHRF | 0.0289
61 | HMEEIPYGVISAKAGAAAYDYIKKSIELGIEKKIDGVATAPIQKEAIHMAGISYIGHTEMYQGIT | 0.0739
62 | HMKPDWLSDGRLIPDEVMSHLRKIAVHAVEEMGYSPEDVIKILGLSRNTIYDWLKRFREHGYEGLDTKK | -0.258
63 | HMPRPLVAPMPGLIVRVTAVVGDSVDAGQGLVVMEAMKMENELRTTTAGVVKTVHVQPGVAVEKGALLIEF | -0.893
64 | HMAPDAPDGFVHRWIRAEMLGQEDKSNVHRRMQEGYELVRADEYPDSDLPVAEGRYAGIIGVGGLLLARF | -0.14
65 | HMKRREENLRRLALSTAERVKRKGKKEILNPMSPQERRIIHLTLQNNKEVVTHSEGEDPYRRVIISPRN | 0.00802
66 | HMNFAERIKELRKEKGITQIDLAEAVGLSKGTVAMWEVDKREANFDTLNKLSDYFQVSIDYLLGRSNDRS | 0.0272
67 | HMQKLKINKYKDPKGEIRYYIASTIRNGNKSSTHNLLSLGKHSDLLKEHSDVEAYLKERLNEAMESGI | -0.145
68 | HMRNERDRQLYAAMEKLKAEYREALYLVYFENMSYRDAAAVMAQTEKQISNLVYRGKQSLKTILEQEGF | -2.65
69 | HMLDYITLSPQELGKLLSAGNGDAAMVYLYMKATGDVTLKQAETQLGMTNQNLAWAESLLKRLGLMD | -0.556
70 | HMYSFPHQLLKLRTEKQLSQAELATRLFVSRQAVSKWENGDAEPSIDKLILLAKVFNVSLDRLILGT | -1.43
71 | HMLGYGEQEREAQKYLEMHTAFQADPSLQKMYLPENQYALISKVMEMTGIKNVKSYLTPPNEL | -0.0174
72 | HMKKKSYIVSFATDEDAQRFAREGFEVISLSGRQITVSLKGEMMPLVKALGSYQVVGLETVA | -0.19
73 | HMFGEDNLKSKEIKERVTEVAKHADDPVWIEARRKWKDENPDQNVKDYQQAYISGRIHELPWDVSYI | 0.142
74 | HMTKIDYSINQIYSLRNIENITIVLKDKRSFTGKILKIYWQNGSKIILFTTETRNYKFKEYEISEIYKS | -0.268
75 | HMDGEMRRKRILQLLSEQTKPLSGTALAKQFGVSRQVIVQDIALLKSKEPAIISTYRGYVLGR | -0.607
76 | HMIHSEEIQDHIFVKQLGEVFLRNHINYENIMKSWDDHTNVIKRFRRYPHRNKILNRESTIDEISFLKE | -0.0665

Reference: the domain aggregation screens of Martell et al. (2025)
